We go through 11 molecules from patent US20240376170A1 (BRIGHT PEAK THERAPEUTICS, published 2024).

Bridges are numbered along the chain shown (N, C = ends). Primed or numbered codes have the meaning given here. [ ]: non-standard residue; d: D form. Ygp = O-(8x polyethylene glycol-amino)-tyrosine (Tyr, amino-capped PEG8); Yn3 = O-(9x polyethylene glycol-azido)-tyrosine (Tyr, azide-capped PEG9); Ygp(3) = O-(PEG8-amino)-tyrosine; Yn3(3) = O-(PEG9-azido)-tyrosine; hSer = N[C@@H](CCO)C(=O)O; Nle = CCCC[C@H](N)C(=O)O

Experiment [1] has as its target T1, IL-2 receptor βγ complex on human T cells (human, UniProt P14784 27-551; P31785 23-369).
T1 sequence (looked up) 1: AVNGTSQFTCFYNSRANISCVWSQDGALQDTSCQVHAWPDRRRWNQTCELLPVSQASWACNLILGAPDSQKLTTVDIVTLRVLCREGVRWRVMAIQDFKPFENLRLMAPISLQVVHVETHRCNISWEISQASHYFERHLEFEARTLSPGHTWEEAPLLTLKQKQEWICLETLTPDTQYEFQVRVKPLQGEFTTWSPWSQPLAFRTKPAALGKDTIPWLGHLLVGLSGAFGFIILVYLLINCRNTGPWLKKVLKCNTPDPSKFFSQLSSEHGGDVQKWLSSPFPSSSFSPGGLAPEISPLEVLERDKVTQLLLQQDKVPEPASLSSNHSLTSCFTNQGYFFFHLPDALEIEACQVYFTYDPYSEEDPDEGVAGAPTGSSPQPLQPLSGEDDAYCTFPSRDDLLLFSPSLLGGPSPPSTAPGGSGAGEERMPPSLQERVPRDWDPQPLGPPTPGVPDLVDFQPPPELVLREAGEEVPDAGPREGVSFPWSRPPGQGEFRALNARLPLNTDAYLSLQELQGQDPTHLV
T1 sequence (looked up) 2: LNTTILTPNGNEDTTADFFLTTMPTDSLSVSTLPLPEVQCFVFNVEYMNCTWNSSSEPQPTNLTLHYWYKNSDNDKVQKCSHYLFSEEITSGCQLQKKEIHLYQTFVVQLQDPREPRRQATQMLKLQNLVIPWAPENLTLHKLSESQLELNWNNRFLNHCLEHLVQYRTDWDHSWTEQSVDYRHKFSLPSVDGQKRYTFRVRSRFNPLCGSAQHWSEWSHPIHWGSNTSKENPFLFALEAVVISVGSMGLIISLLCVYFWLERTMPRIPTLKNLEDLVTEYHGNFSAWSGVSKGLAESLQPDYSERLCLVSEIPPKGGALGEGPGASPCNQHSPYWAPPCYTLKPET
As to the kind of experiment: cell-based or functional assay.

For experiment [2], the target named is T2, recombinant human IL-2 receptor beta containing a His-tag and Avi-tag (human, UniProt P14784 27-239).
T2 construct: Bought; attached to the SAX2 biosensor; also called CD122; IL-2R β; not shown: His-tag and Avi-tag
T2 sequence (looked up): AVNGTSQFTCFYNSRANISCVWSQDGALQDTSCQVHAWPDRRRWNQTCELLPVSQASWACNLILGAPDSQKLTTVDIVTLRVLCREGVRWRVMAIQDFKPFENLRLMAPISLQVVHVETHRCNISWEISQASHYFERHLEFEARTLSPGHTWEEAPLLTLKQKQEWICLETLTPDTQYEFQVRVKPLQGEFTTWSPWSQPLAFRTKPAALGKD
As to the kind of experiment: BLI (Octet R8), receptor on SAX2 sensor. How it is done:
(§1) Bilayer interferometry (BLI) assays were used to measure the binding constants between activatable IL-2 polypeptides (and activated versions thereof) to IL-2 receptor subunits or receptor complexes. BLI assays were conducted on an Octet® R8 instrument. Assay plates were 96 well, polypropylene, F-bottom (chimney well), black microplates (Greiner Bio-one, Cat. No: 655209). The biosensors were Octet® SAX2 (Sartorius, Cat. No: 18-5136). The assay buffer was 1X Kinetic Buffer (Sartorius, Cat. no: 18-5136) or Phosphate Buffered Saline (PBS) that contained 0.02% (v: v) Tween 20 (Polysorbate 20) and 0.1% (w/v) bovine serum albumin (BSA). The sensor was regenerated between measurements in 10 mM glycine pH 2.7 buffer.
(§2) Sensor attached receptors were either recombinant human IL-2 receptor beta containing a His-tag and Avi-tag™ (R&D Systems™) or an Avi-tag™ Fc with human IL-2R beta and IL-2R gamma attached (Acrobiosystems Cat. no: ACRB-ILG-H₈₂F3-25UG). Receptors were reconstituted from lyophilized powder to 500 μg/ml in PBS. Analytes were diluted in Kinetic buffer to 300 nM, then serially diluted to lower concentrations.
(In general: BLI is a label-free optical method that tracks binding on a fibre tip over time.)

The target of experiment [3] is T3, Avi-tag Fc with human IL-2R beta and IL-2R gamma attached (Acrobiosystems ACRB-ILG-H82F3-25UG) (human, UniProt P14784 27-239; P31785 23-262).
T3 construct: Bought; attached to the SAX2 biosensor; also called CD122 CD132; IL-2R βγ; not shown: Fc and Avi-tag
T3 sequence (looked up) 1: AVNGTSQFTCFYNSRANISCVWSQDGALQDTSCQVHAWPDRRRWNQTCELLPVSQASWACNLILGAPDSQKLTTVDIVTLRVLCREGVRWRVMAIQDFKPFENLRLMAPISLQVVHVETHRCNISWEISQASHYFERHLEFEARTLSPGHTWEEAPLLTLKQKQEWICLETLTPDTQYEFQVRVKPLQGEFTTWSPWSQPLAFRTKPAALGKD
T3 sequence (looked up) 2: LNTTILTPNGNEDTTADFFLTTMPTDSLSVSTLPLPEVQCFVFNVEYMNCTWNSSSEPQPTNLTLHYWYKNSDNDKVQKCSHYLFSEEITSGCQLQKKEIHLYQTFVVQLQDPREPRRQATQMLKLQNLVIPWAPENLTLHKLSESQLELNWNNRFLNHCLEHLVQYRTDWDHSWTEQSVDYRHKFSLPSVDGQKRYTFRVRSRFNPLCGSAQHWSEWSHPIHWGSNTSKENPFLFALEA
As to the kind of experiment: BLI (Octet R8), receptor on SAX2 sensor. Here is the method: as §1, §2

In experiment [4] the target is T4, IL-2Rβγ on HEK-Blue IL-2Rβγ reporter cells (InvivoGen) (UniProt P14784 27-551; P31785 23-369, limits assumed).
T4 sequence (looked up) 1: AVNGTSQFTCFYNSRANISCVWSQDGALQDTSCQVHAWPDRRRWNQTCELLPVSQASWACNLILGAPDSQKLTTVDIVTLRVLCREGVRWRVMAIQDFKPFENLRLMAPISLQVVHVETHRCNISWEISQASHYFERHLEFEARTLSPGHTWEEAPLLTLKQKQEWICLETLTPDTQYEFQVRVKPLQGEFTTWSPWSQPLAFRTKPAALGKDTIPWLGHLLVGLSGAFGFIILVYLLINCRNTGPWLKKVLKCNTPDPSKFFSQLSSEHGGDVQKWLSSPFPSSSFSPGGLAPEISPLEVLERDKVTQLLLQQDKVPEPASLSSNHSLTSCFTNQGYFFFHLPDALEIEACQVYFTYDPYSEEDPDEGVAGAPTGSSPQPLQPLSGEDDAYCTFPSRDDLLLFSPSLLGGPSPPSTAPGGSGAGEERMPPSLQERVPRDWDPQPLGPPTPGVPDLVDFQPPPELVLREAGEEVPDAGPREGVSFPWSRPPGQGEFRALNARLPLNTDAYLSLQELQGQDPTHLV
T4 sequence (looked up) 2: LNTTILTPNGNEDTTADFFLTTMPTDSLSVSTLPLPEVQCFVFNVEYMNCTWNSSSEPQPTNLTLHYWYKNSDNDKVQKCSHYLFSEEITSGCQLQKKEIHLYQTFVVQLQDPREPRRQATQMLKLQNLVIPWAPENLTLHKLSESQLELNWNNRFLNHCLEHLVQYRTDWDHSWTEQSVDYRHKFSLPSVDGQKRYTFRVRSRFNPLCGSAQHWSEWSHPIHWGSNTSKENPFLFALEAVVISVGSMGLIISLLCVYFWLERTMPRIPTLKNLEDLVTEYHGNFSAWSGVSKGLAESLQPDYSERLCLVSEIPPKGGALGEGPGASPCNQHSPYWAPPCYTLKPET
As to the kind of experiment: cell-based or functional assay.

B1: CMP-146 (ligand)
chain: APTSSSTKKTKLQLEHLLLDLQ[Nle]ILNGINNYKNPKLTR[Nle]L[hSer][Yn3(3)]KF[Ygp(3)][Nle]PKKATELKHLQCLEEELKPLEEVL[hSer]LAQSKNFHLRPRDLISNINVIVLELKGSETTF[hSer]CEYADETATIVEFLNRWITFSQSIISTLT
modifications: also: further groups not given here
In the case of B1, the “Average EC50, pSTAT5 Assay (T cells), intact molecule” value in experiment [1] worked out at 4.29 nM.

B2: CMP-149 (ligand)
chain: APTSSSTKKTQLQLEHLLKDLQ[Nle]ILNGINNYKNPKLTR[Nle]L[hSer][Yn3(3)]KF[Ygp(3)][Nle]PKKATELKHLQCLEEELKPLEEVL[hSer]LAQSKNFHLRPRDLISNINVIVLELKGSETTF[hSer]CEYADETATIVEFLNRWITFSQSIISTLT
modifications: also: further groups not given here
With B2, the “Average EC50, pSTAT5 Assay (T cells), intact molecule” value in experiment [1] was determined as 46.7 nM.

B3: CMP-149, MMP2 cleaved (ligand)
chain: APTSSSTKKTQLQLEHLLKDLQ[Nle]ILNGINNYKNPKLTR[Nle]L[hSer][Yn3(3)]KF[Ygp(3)][Nle]PKKATELKHLQCLEEELKPLEEVL[hSer]LAQSKNFHLRPRDLISNINVIVLELKGSETTF[hSer]CEYADETATIVEFLNRWITFSQSIISTLT
modifications: also: MMP2-cleaved form, remnant not given here, Lys19 side chain attached moiety
Consider B3, for which, in experiment [1], the “Average EC50, pSTAT5 Assay (T cells), MMP2 cleaved molecule” value (shortened to “Average EC50 … MMP2 cleaved molecule”) was determined as 9.56 nM.

B4: CMP-148, MMP2 cleaved (ligand)
chain: APTSSSTKKTQLQLKHLLLDLQ[Nle]ILNGINNYKNPKLTR[Nle]L[hSer][Yn3(3)]KF[Ygp(3)][Nle]PKKATELKHLQCLEEELKPLEEVL[hSer]LAQSKNFHLRPRDLISNINVIVLELKGSETTF[hSer]CEYADETATIVEFLNRWITFSQSIISTLT
modifications: also: MMP2-cleaved form, remnant not given here, Lys15 side chain attached moiety
As to B4, the “Average EC50 … MMP2 cleaved molecule” value in experiment [1] was 0.95 nM.

B5: CMP-150 (ligand)
chain: APTSSSTKKTQLQLEHLLLDLK[Nle]ILNGINNYKNPKLTR[Nle]L[hSer][Yn3(3)]KF[Ygp(3)][Nle]PKKATELKHLQCLEEELKPLEEVL[hSer]LAQSKNFHLRPRDLISNINVIVLELKGSETTF[hSer]CEYADETATIVEFLNRWITFSQSIISTLT
modifications: also: further groups not given here
For B5, the “Average EC50, pSTAT5 Assay (T cells), intact molecule” value in experiment [1] was 6.38 nM.

B6: CMP-319 (ligand)
chain: RGRRVANLVGAPTSSSTKKTQLQLEHLLLDLQEILNGINNYKNPKLTR[Nle]L[hSer][Yn3]KF[Ygp][Nle]PKKATELKHLQCLEEELKPLEEVL[hSer]LAQSKNFHLRPRDLISNINVIVLELKGSETTF[hSer]CEYADETATIVEFLNRWITFSQSIISTLT
modifications: lactam N-33; ends not checked
As to B6, in experiment [2], the Kd (in general, the equilibrium constant for the complex coming apart) amounted to 59.5 nM; the dissociation rate constant (koff) (as a rule, a measure of how fast the partners let go of each other) was determined as 0.0122 s⁻¹; the kon (usually the second-order rate constant of association) is 206000 M⁻¹ s⁻¹. In experiment [3], binding was put at a Kd of 9.19 nM, the koff is 0.000786 s⁻¹ and the kon was 85500 M⁻¹ s⁻¹. Besides, in experiment [4], the “Average EC50, HEK-Blue IL-2R (CD122+, CD132+) Reporter Assay, intact molecule” value was determined as 1.05 nM.

B7: CMP-148 (ligand)
chain: APTSSSTKKTQLQLKHLLLDLQ[Nle]ILNGINNYKNPKLTR[Nle]L[hSer][Yn3(3)]KF[Ygp(3)][Nle]PKKATELKHLQCLEEELKPLEEVL[hSer]LAQSKNFHLRPRDLISNINVIVLELKGSETTF[hSer]CEYADETATIVEFLNRWITFSQSIISTLT
modifications: also: further groups not given here
As to B7, the “Average EC50, pSTAT5 Assay (T cells), intact molecule” value in experiment [1] was 3.57 nM.

B8: CMP-146, MMP2 cleaved (ligand)
chain: APTSSSTKKTKLQLEHLLLDLQ[Nle]ILNGINNYKNPKLTR[Nle]L[hSer][Yn3(3)]KF[Ygp(3)][Nle]PKKATELKHLQCLEEELKPLEEVL[hSer]LAQSKNFHLRPRDLISNINVIVLELKGSETTF[hSer]CEYADETATIVEFLNRWITFSQSIISTLT
modifications: also: MMP2-cleaved form, remnant not given here, Lys11 side chain attached moiety
With B8, in experiment [1], the “Average EC50 … MMP2 cleaved molecule” value was 0.92 nM.

B9: CMP-147 (ligand)
chain: APTSSSTKKTQLKLEHLLLDLQ[Nle]ILNGINNYKNPKLTR[Nle]L[hSer][Yn3(3)]KF[Ygp(3)][Nle]PKKATELKHLQCLEEELKPLEEVL[hSer]LAQSKNFHLRPRDLISNINVIVLELKGSETTF[hSer]CEYADETATIVEFLNRWITFSQSIISTLT
modifications: also: further groups not given here
On to B9, for which the “Average EC50, pSTAT5 Assay (T cells), intact molecule” value in experiment [1] came to 3.86 nM.

B10: CMP-147, MMP2 cleaved (ligand)
chain: APTSSSTKKTQLKLEHLLLDLQ[Nle]ILNGINNYKNPKLTR[Nle]L[hSer][Yn3(3)]KF[Ygp(3)][Nle]PKKATELKHLQCLEEELKPLEEVL[hSer]LAQSKNFHLRPRDLISNINVIVLELKGSETTF[hSer]CEYADETATIVEFLNRWITFSQSIISTLT
modifications: also: MMP2-cleaved form, remnant not given here, Lys13 side chain attached moiety
On to B10, for which the “Average EC50 … MMP2 cleaved molecule” value in experiment [1] came to 1.29 nM.

B11: CMP-150, MMP2 cleaved (ligand)
chain: APTSSSTKKTQLQLEHLLLDLK[Nle]ILNGINNYKNPKLTR[Nle]L[hSer][Yn3(3)]KF[Ygp(3)][Nle]PKKATELKHLQCLEEELKPLEEVL[hSer]LAQSKNFHLRPRDLISNINVIVLELKGSETTF[hSer]CEYADETATIVEFLNRWITFSQSIISTLT
modifications: not fully specified; also: further groups not given here
For B11, the “Average EC50 … MMP2 cleaved molecule” value in experiment [1] amounted to 0.45 nM.
